Where no end group is shown, it is not given here. [ ]: non-standard residue; d: D form. Tyr(3-I) = N[C@@H](Cc1ccc(O)c(I)c1)C(=O)O
Experiments:
CEGPCR3 receptor = target: T1, CEGPCR3 receptor (Caenorhabditis elegans, UniProt P90745); assay: [35S]GTPγS binding assay, membranes of CHO cells transiently transfected with CEGPCR3; type: biochemical, C. elegans
T1 sequence (P90745 1-376): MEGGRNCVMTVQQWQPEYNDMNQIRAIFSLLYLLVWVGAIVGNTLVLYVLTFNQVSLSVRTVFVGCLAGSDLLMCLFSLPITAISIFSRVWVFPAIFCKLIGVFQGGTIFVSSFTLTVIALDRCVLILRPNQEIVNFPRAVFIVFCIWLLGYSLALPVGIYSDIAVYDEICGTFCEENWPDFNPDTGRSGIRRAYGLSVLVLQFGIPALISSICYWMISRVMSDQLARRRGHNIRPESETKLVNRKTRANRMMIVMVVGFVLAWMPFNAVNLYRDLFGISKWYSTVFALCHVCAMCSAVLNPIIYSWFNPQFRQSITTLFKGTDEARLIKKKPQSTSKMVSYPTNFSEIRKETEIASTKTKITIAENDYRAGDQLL
Experimental: (§1) Recombinant pCR3.1 clones encoding invertebrate GPCR-like receptors were transformed into wild-type CHO-K1 cells and functional expression was achieved using a temperature-shift incubation protocol. The CHO-K1 cells were cultured at 37° C. in a humidified atmosphere of 5% CO2 in air in DMEM medium supplemented with 10% heat-inactivated fetal bovine serum (i.e., FBS), 10 μg/ml gentamicin, and 0.1 mM nonessential amino acids to give complete DMEM medium. Additionally, for incubations at temperatures lower than 37° C., the medium was fortified with 10 mM HEPES (pH 7.4). Cells were transfected with recombinant pCR3.1 clones containing GPCR-like receptor DNAs, using LipofectAMINE PLUS™, essentially according to the manufacturer's instructions. […] In separate plastic tubes, PLUS (20 μl/plate; Life Technologies) was added to 0.75 ml/plate of recombinant plasmid DNA in OptiMEM (5 μg/plate; Gibco/BRL—Life Technologies), mixed and incubated at room temperature for 15 minutes. Separately, LipofectAMINE (30 μl/plate) was mixed with 0.75 ml OptiMEM and added to the pre-complexed DNA/PLUS mixture and incubated at room temperature for 15 minutes. The culture medium was then replaced with serum-free transfection medium (DMEM, 5 ml/plate). The DNA-PLUS-LipofectAMINE complex was then added to the plates (1.5 ml/plate) and mixed gently into the medium, followed by a 3 hour incubation at 37° C. in 5% CO2. At this time, the medium was supplemented with complete DMEM medium containing 20% FBS (6.5 ml/plate) and incubation was continued at 37° C. in 5% CO2. After a total of 24 hours at 37° C. in 5% CO2, the medium was replaced with complete DMEM medium fortified with 10 mM HEPES (10 ml/plate) and the cells were moved to an incubator maintained at 28-30° C. in a humidified atmosphere of 5% CO2 in air. The incubation continued for an additional 24 hours, typically at the lower temperature indicated above. A plasmid encoding Green Fluorescent Protein (i.e., GFP, 4 μg/plate) was used for transient GFP expression in CHO-K1 cells to estimate the transfection yields under the same conditions as used for GPCR-like receptor polynucleotides.
(§2) To assess expression, membranes were prepared from transfected CHO-K1 cells. Transfected cells were washed once with ice-cold Dulbecco's phosphate-buffered saline (i.e., PBS), 5 ml per 10 cm plate, and the cells were scraped into 5 ml of the same buffer. Cell suspensions from multiple plates were combined and centrifuged at 500×g for 10 minutes at 4° C. The cell pellet was reconstituted in ice-cold TEE (25 mM Tris, pH 7.4, 5 mM EGTA, 5 mM EDTA). Convenient aliquots were snap-frozen in liquid nitrogen and stored at −70° C. After thawing, the cells were homogenized and centrifuged at 500×g for 5 minutes at 4° C. to pellet nuclei and unbroken cells. Tile supernatant was centrifuged at 47,000×g for 30 minutes at 4° C. The membrane pellet was washed once with TEE, resuspended in 20 mM HEPES, pH 7.4, 100 mM NaCl, 10 mM MgCl2, 1 mM EDTA (assay buffer), distributed into aliquots of 0.5-1.0 ml, and frozen in liquid nitrogen. Membrane aliquots were stored at −70° C. Membrane protein concentration was determined using the BCA Protein Assay Reagent from Pierce (Rockford, Ill.), with bovine serum albumin (i.e., BSA) as a standard.
(§3) Aliquots of cell membranes prepared as described above and stored at −70° C. were thawed, homogenized, and diluted into buffer containing 20 mM HEPES, pH 7.4, 10 mM MgCl2, 1 mM EDTA, and 100 mM NaCl at a concentration of 10-50 μg/ml. Reaction mixtures were prepared in 96-well polypropylene plate, Nunc. Twenty microliters of a 10× putative modulator compound (including but not limited to potential peptide ligands) solution or a water control (20 μl), 18.2 µM GDP (0.11 ml, 10 μM final concentration), and a membrane preparation were mixed and placed on ice. The modulator/ligand-GDP-membrane mixtures were incubated for 20 minutes at room temperature on a shaking platform and then placed on ice.

CEGPCR5 = target: T2, CEGPCR5 (Caenorhabditis elegans, UniProt Q18179); assay: [35S]GTPγS binding assay, CEGPCR5 expressed in CHO cells; type: biochemical, C. elegans
T2 sequence (Q18179 1-402): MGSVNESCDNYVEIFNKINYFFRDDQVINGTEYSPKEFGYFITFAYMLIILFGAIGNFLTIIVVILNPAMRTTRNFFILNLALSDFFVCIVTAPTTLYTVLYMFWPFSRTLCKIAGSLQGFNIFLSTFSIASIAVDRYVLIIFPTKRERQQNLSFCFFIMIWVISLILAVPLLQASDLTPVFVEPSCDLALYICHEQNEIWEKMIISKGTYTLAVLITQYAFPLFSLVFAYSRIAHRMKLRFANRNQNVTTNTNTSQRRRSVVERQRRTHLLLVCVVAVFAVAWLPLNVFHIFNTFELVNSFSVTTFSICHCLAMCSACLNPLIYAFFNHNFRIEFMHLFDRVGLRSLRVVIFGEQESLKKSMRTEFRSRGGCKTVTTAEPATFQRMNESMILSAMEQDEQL
Experimental: as §1, §2, §3

CEGPCR12h receptor = target: T3, CEGPCR12h receptor (Caenorhabditis elegans, UniProt Q20275); assay: [35S]GTPγS binding assay, CEGPCR12h expressed in CHO cells; type: biochemical, C. elegans; details: Table 11; one range for the group; results apply to all CEGPCR12 isoforms; read-out: EC50 range
T3 sequence (Q20275 1-402): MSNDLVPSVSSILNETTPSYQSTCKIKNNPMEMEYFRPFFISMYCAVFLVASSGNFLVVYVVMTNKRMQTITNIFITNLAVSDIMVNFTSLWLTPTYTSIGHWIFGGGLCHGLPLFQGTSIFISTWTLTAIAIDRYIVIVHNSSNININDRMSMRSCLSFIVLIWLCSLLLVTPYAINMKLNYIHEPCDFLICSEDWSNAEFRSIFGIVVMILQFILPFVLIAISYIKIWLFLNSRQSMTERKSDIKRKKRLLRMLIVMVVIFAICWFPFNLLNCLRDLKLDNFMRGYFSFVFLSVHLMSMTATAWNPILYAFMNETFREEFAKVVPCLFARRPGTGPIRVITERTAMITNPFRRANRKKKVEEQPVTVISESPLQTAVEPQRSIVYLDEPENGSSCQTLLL
Experimental: as §1, §2, §3

CEGPCR4 [1] = target: T4, CEGPCR4 (C. elegans); assay: competition binding assay, CEGPCR4/CHO membranes; IC50 range printed once for block r9-r18
T4 construct: Expressed in CHO cells; also called CEGPCR4 receptor; CEGPCR4/CHO membranes
T4 chain: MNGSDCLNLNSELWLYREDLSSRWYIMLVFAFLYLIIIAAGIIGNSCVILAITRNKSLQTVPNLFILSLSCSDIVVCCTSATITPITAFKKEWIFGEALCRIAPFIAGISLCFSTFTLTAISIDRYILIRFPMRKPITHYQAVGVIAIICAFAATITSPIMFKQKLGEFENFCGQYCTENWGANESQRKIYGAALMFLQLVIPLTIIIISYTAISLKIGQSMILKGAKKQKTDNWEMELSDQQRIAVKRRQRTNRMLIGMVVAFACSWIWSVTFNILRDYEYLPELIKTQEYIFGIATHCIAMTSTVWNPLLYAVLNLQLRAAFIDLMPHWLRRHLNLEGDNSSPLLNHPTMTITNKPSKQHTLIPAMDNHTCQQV

CEGPCR4 [2] = target: T4, CEGPCR4; assay: competition binding assay, CEGPCR4/CHO membranes; IC50 range printed once for block r26-r35
CEGPCR4 [3] = target: T4, CEGPCR4; assay: competition binding assay, CEGPCR4/CHO membranes; IC50 range printed once for block r39-r54
[4] = EC50, single values, GTPγS assay
[5] = EC50 range, Table 7, one range for the group of peptides, cells 24 h 37° C. then 24 h 28° C.

GNSFLRF-NH2 [GNSFLRF-NH2]
EC50 (CEGPCR3 receptor; [4]): 7900 nM
EC50 (CEGPCR3 receptor; EC50 range, Table 7, cells 24 h 37° C. then 24 h 28° C.): ~8000 nM
receptor activation by matched ligand (CEGPCR3 receptor; membranes from cells transfected and maintained at 37° C.): not detectably activated
potency lower than that of the two C. elegans flp15 peptides (CEGPCR3 receptor; ratio of EC50 values): 19-52 fold
ligand-induced [35S]GTPγS binding (CEGPCR3 receptor; temperature shift to 28° C. 24 hours after transfection): significant stimulation
EC50 (CEGPCR5): 80 to 800 nM

GPSGPLRF-NH2 [GPSGPLRF-NH2]
EC50 (CEGPCR3 receptor; [4]): 422 nM
EC50 (CEGPCR3 receptor; [5]): 150 to 400 nM

GGPQGPLRF-NH2 [GGPQGPLRF-NH2]
EC50 (CEGPCR3 receptor; [4]): 152 nM
EC50 (CEGPCR3 receptor; [5]): 150 to 400 nM
EC50 (CEGPCR12h receptor): 1500 to 3000 nM

B1: EIPGVLRF-NH2 (peptide)
peptide: EIPGVLRF-NH2
notes: flp18
binding result (CEGPCR4 [1]): binds

B2: SAEPFGTMRF-NH2 (peptide)
peptide: SAEPFGTMRF-NH2
modifications: not fully specified; printed as SAEPFGTMRF-NH2
notes: flp3
binding result (CEGPCR4 [2]): binds

B3: SEVPGVLRF-NH2 (peptide)
peptide: SEVPGVLRF-NH2
notes: flp18
binding result (CEGPCR4 [1]): binds

B4: DFDGAMPGVLRF-NH2 (peptide)
peptide: DFDGAMPGVLRF-NH2
notes: flp18
binding result (CEGPCR4 [1]): binds

B5: DVPGVLRF-NH2 (peptide)
peptide: DVPGVLRF-NH2
notes: flp18
binding result (CEGPCR4 [3]): binds

B6: SVPGVLRF-NH2 (peptide)
peptide: SVPGVLRF-NH2
notes: flp18
binding result (CEGPCR4 [1]): binds

B7: Y-VPGVLRF-NH2 (peptide)
peptide: YVPGVLRF-NH2
notes: synthetic
binding result (CEGPCR4 [3]): binds

B8: 3-Iodo-Y-GVLRF-NH2 (peptide)
peptide: [Tyr(3-I)]GVLRF-NH2
modifications: N-terminus assumed
SMILES: CC(C)C[C@H](NC(=O)[C@@H](NC(=O)CNC(=O)[C@@H](N)Cc1ccc(O)c(I)c1)C(C)C)C(=O)N[C@@H](CCCNC(=N)N)C(=O)N[C@@H](Cc1ccccc1)C(N)=O
notes: synthetic
binding result (CEGPCR4 [3]): binds

B9: GGPQGPLRF-NH2 (peptide)
peptide: GGPQGPLRF-NH2
notes: flp15
binding result (CEGPCR4 [2]): binds

B10: NGAPQPFVRF-NH2 (peptide)
peptide: NGAPQPFVRF-NH2
notes: flp11 (species cell stands one row higher, r34c4)
binding result (CEGPCR4 [2]): binds

B11: ASPSFIRF-NH2 (peptide)
peptide: ASPSFIRF-NH2
notes: flp4
binding result (CEGPCR4 [1]): binds

B12: KSVPGVLRF-NH2 (peptide)
peptide: KSVPGVLRF-NH2
notes: flp18
binding result (CEGPCR4 [1]): binds

B13: 3-Iodo-Y-VPGVLRF-NH2 (peptide)
peptide: [Tyr(3-I)]VPGVLRF-NH2
modifications: N-terminus assumed
SMILES: CC(C)C[C@H](NC(=O)[C@@H](NC(=O)CNC(=O)[C@@H]1CCCN1C(=O)[C@@H](NC(=O)[C@@H](N)Cc1ccc(O)c(I)c1)C(C)C)C(C)C)C(=O)N[C@@H](CCCNC(=N)N)C(=O)N[C@@H](Cc1ccccc1)C(N)=O
notes: synthetic
binding result (CEGPCR4 [3]): binds

B14: SDNFMRF-NH2 (peptide)
peptide: SDNFMRF-NH2
binding result (CEGPCR4 [2]): binds

B15: PDNFMRF-NH2 (peptide)
peptide: PDNFMRF-NH2
binding result (CEGPCR4 [2]): binds

B16: SPLGTMRF-NH2 (peptide)
peptide: SPLGTMRF-NH2
notes: flp3
binding result (CEGPCR4 [2]): binds

B17: EIVFHQISPIFFRF-NH2 (peptide)
peptide: EIVFHQISPIFFRF-NH2
notes: flp14 as printed
binding result (CEGPCR4 [2]): binds

B18: TNRNFLRF-NH2 (Lobster peptide II) (peptide)
peptide: TNRNFLRF-NH2
binding result (CEGPCR4 [2]): binds

B19: Y-DVPGVLRF-NH2 (peptide)
peptide: YDVPGVLRF-NH2
notes: synthetic
binding result (CEGPCR4 [3]): binds

From patent US6632621B1, “G protein-coupled receptor-like receptors and modulators thereof” (priority 1999, dated 2003)
